Measured values as given in patent US6703362 (CYTOGEN, dated 2004).
Read-outs that look alike come from different tables or passages of the source.

T1: D2H receptor domain (human D2H transporter, amino acid residues 387-685), His-tag fusion protein (human, UniProt Q07837 387-685)
T1 construct: purified under denaturing conditions; also called recombinant D2H; not shown: poly-histidine tag (pET vector) at the NH2-terminal end
T1 sequence: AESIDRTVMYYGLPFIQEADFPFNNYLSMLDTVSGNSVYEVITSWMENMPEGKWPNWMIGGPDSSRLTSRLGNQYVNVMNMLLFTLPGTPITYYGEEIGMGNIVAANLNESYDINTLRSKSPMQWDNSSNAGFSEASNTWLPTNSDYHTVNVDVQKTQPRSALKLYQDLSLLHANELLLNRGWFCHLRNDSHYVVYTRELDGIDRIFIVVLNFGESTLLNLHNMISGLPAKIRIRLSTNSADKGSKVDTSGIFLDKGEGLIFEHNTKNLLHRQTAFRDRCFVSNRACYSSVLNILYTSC


Key:
[1] = target: T1, D2H receptor domain (human D2H …); test: phage ELISA, plate coated with D2H domain
Experimental: (§1) 6.6. Receptor ELISA Procedure 96 well plates were coated overnight with GIT receptor, BSA and, optionally, IDE (insulin degrading enzyme, an irrelevant His-fusion protein)or hTF. The plates were blocked for one hour with 0.5% BSA-PBS. After clarification, the amplified phage were diluted 1:100 in […] plus 0.05% Tween 20 in PBS and added to the plates. Following incubation of the plates on a rotator for 1 to 2 hours, the plates were washed 5 times with 1% BSA plus 0.05% Tween 20 in PBS. […] After the plates were washed 5 times, as described above, TMB substrate was added to the wells. The plates were read at 650 nm absorbance.

[2] = target: T1, D2H receptor domain (human D2H …); test: phage ELISA, OD on D2H over OD on BSA
Experimental: as §1

[3] = target: T1, D2H receptor domain (human D2H …); test: phage ELISA, OD on D2H over OD on BSA; remark: listed apart in the source
Experimental: as §1
(§2) Binding to fixed Caco-2 cells, D2H and BSA was examined.

[4] = target: T1, D2H receptor domain (human D2H …); test: phage ELISA, plate coated with D2H domain; remark: listed apart in the source
Experimental: as §1, §2

Binder	OD [1] [OD]	D2H/BSA [2] [ratio]	D2H/BSA [3] [ratio]	OD [4] [OD]
DAB10 (Assayed as M13 phage clone displaying the insert) peptide: SKSGEGGDSSRGETGWARVRSHAMTAGRFRWYNQLPSDRAETVESCLAKPHTENSFTNVWKDDKTLDRYANYEGCLWNATGVVVCTGDETQCYGTWVPIGLAIPENEGGGSEGGGSEGGGSEGGGTKPPEYGDTPIPGYTYINPLDGTYPPGTEQNPANPNPSLEESQPLNTFMFQNNRFRNRQGALTVYTGTVTQGTDPVKTYYQYTPVSSKAMYDAYWNGKFRDCAFHSGFNEDPFVCEYQGQSSDLPQPPVNAGGGSGGGSGGGSEGGGSEGGGSEGGGSEGGGSGGGSGSGDFDYEKMANANKGAMTENADENALQSDAKGKLDSVATDYGAAIDGFIGDVSGLANGNGATGDFAGSNSQMAQVGDGDNSPLMNNFRQYLPSLPQSVECRPFVFSAGKPYEFSIDCDKINLFRGVFAFLLYVATFMYVFSTFANILRNKES	0.644	4	–	–
DAX23 (Assayed as M13 phage clone displaying the insert) peptide: REWRFAGPPLDLWAGPSLPSFNASSHPRALRTYWSQRPRAETVESCLAKPHTENSFTNVWKDDKTLDRYANYEGCLWNATGVVVCTGDETQCYGTWVPIGLAIPENEGGGSEGGGSEGGGSEGGGTKPPEYGDTPIPGYTYINPLDGTYPPGTEQNPANPNPSLEESQPLNTFMFQNNRFRNRQGALTVYTGTVTQGTDPVKTYYQYTPVSSKAMYDAYWNGKFRDCAFHSGFNEDPFVCEYQGQSSDLPQPPVNAGGGSGGGSGGGSEGGGSEGGGSEGGGSEGGGSGGGSGSGDFDYEKMANANKGAMTENADENALQSDAKGKLDSVATDYGAAIDGFIGDVSGLANGNGATGDFAGSNSQMAQVGDGDNSPLMNNFRQYLPSLPQSVECRPFVFSAGKPYEFSIDCDKINLFRGVFAFLLYVATFMYVFSTFANILRNKES	0.698	5	–	–
DCX8 (Assayed as M13 phage clone displaying the insert) peptide: RYKHDIGCDAGVDKKSSSVRGGCGAHSSPPRAGRGPRGTMVSRLAETVESCLAKPHTENSFTNVWKDDKTLDRYANYEGCLWNATGVVVCTGDETQCYGTWVPIGLAIPENEGGGSEGGGSEGGGSEGGGTKPPEYGDTPIPGYTYINPLDGTYPPGTEQNPANPNPSLEESQPLNTFMFQNNRFRNRQGALTVYTGTVTQGTDPVKTYYQYTPVSSKAMYDAYWNGKFRDCAFHSGFNEDPFVCEYQGQSSDLPQPPVNAGGGSGGGSGGGSEGGGSEGGGSEGGGSEGGGSGGGSGSGDFDYEKMANANKGAMTENADENALQSDAKGKLDSVATDYGAAIDGFIGDVSGLANGNGATGDFAGSNSQMAQVGDGDNSPLMNNFRQYLPSLPQSVECRPFVFSAGKPYEFSIDCDKINLFRGVFAFLLYVATFMYVFSTFANILRNKES	–	–	3	0.163
DCX11 (Assayed as M13 phage clone displaying the insert) peptide: SQGSKQCMQYRTGRLTVGSEYGCGMNPARHATPAYPARLLPRYRAETVESCLAKPHTENSFTNVWKDDKTLDRYANYEGCLWNATGVVVCTGDETQCYGTWVPIGLAIPENEGGGSEGGGSEGGGSEGGGTKPPEYGDTPIPGYTYINPLDGTYPPGTEQNPANPNPSLEESQPLNTFMFQNNRFRNRQGALTVYTGTVTQGTDPVKTYYQYTPVSSKAMYDAYWNGKFRDCAFHSGFNEDPFVCEYQGQSSDLPQPPVNAGGGSGGGSGGGSEGGGSEGGGSEGGGSEGGGSGGGSGSGDFDYEKMANANKGAMTENADENALQSDAKGKLDSVATDYGAAIDGFIGDVSGLANGNGATGDFAGSNSQMAQVGDGDNSPLMNNFRQYLPSLPQSVECRPFVFSAGKPYEFSIDCDKINLFRGVFAFLLYVATFMYVFSTFANILRNKES	–	–	3	0.222
